Data on seven molecules can be found in US8338155B2, “Modified mevalonate kinase with reduced feedback inhibition” (DSM IP Assets B.V., priority 2004, dated 2012).

Series [1] deals with Saccharomyces cerevisiae mevalonate kinase. As to the kind of experiment: Mevalonate kinase activity assay (NADH consumption, photometric at 340 nm): specific activity. The settings on record: purified His6-tagged enzyme; WT = non-mutated His6-tagged mevalonate kinase. The format is biochemical. The text has this:
Methods for measuring specific activity are known to the person skilled in the art. The specific activity may for instance be determined via measuring the consumption of NADH. Suitable conditions for such measurement may be those as e.g. outlined in Example 1 except that, typically, saturating substrate concentrations are used or, in the case of enzyme inhibition at high substrate concentrations, at substrate concentrations that provide maximal activity under the particular experimental conditions.
(§1) For preparing mevalonate as substrate, 130 mg of DL-mevalonate lactone (FLUKA Chemie AG, Buchs, Switzerland) were dissolved in 5.5 ml of 0.2 M KOH and incubated for 15 min at 50° C. The solution was then adjusted to pH 7.0 by addition of 0.1 M HCl at room temperature (RT). Except if stated otherwise, the assay mixture consisted of 100 mM K2BPO/KH2PO4 (pH 7.0), 1 mM ATP, 2 mM MgCl2, 1 mM mevalonate, 0.5 mM phosphoenolpyruvate (PEP), 0.32 mM NADH, 20 U/ml pyruvate kinase and 27 U/ml lactate dehydrogenase (Sigma-Aldrich, St. Louis, Mo., USA). Inhibition was tested by adding 1 μM FPP.
(§2) Purification of His6-tagged mevalonate kinase and of His6-tagged mevalonate kinase mutant enzymes was done with Ni-NTA chromatography using the QIAexpress system/reagents of Qiagen. Upon addition of purified (His6-tagged) mevalonate kinase, enzymatic reaction reflected by consumption of NADH was followed by photometric measurement at 340 nm. One unit (1 U) of mevalonate kinase activity catalyzes the phosphorylation of 1 μmol of mevalonate per min.
(§3) Preparation of Mevalonate and Activity Measurement was Exactly Performed as Described in Example 1. 1 μM FPP was used for inhibition assays performed with the Saccharomyces cerevisiae mevalonate kinase wild-type enzyme and its mutants.

Series [2] has the same test system. Nature of the series: Inhibition of mevalonate kinase activity by the feedback inhibitor FPP: feedback resistance. The settings on record: 1 μM FPP; % resistance=100·((d/c)−(b/a))/(1−(b/a)) relative to wild-type. Format: biochemical. The protocol: “Feedback resistance” as used herein may be any increase in resistance to “feedback inhibition” (as defined above). Feedback resistance can be analyzed in different ways known to those skilled in the art. An appropriate example of such an analysis is shortly described herein: mevalonate kinase activity is measured in an activity assay at non-saturating concentrations of for instance ATP (or of another phosphate donor) and mevalonate (or mevalonate analogue), i.e., at for instance ATP (or phosphate donor) and mevalonate (or mevalonate analogue) concentrations around which the reaction rate is sensitive to changes of these substrate concentrations, e.g., at concentrations around the respective Km values of the enzyme under investigation for these substrates. The activities of both wild-type mevalonate kinase and of a variant/mutant of this enzyme are measured under otherwise identical conditions both in the absence and presence of a relevant concentration of a feedback inhibitor, i.e., at a concentration of feedback inhibitor affording significant inhibition of the wild-type mevalonate kinase. If the extent of inhibition (e.g., % inhibition) by the feedback inhibitor is lower for the mutant than for the wild-type enzyme, then the mutant is feedback resistant in the context of the present patent application. Once a feedback resistant variant/mutant has been identified, the same procedure as described above may be applied to identify further improved mutants, i.e., mutants that are even more feedback resistant. Feedback resistance (%) is calculated as follows: if (a) and (b) are the measured mevalonate kinase activities of the wild-type enzyme in the absence and presence, respectively, of the feedback inhibitor (e.g., FPP), and if (c) and (d) are the measured mevalonate kinase activities of the mutant enzyme in the absence and presence, respectively, of the same feedback inhibitor, then % feedback resistance is: % resistance=100·((d/c)−(b/a))/(1−(b/a))
as §1, §2, §3
Feedback resistance (%) was calculated according to the following formula: % resistance=100·((d/c)−(b/a))/(1−(b/a)) wherein (a) and (b) refer to the measured mevalonate kinase activities of the wild-type enzyme in the absence and presence, respectively, and (c) and (d) refer to the measured mevalonate kinase activities of the mutant enzyme in the absence and presence, respectively, of FPP. The results are shown in Tab. 1, wherein WT represents the non-mutated mevalonate kinase containing a His6-tag (SEQ ID NO:3).

B1: WT: non-mutated Saccharomyces cerevisiae mevalonate kinase containing a His6-tag (SEQ ID NO:3) (protein, listed as Saccharomyces cerevisiae)
chain: MRGSHHHHHHGSACSLPFLTSAPGKVIIFGEHSAVYNKPAVAASVSALRTYLLISESSAPDTIELDFPDISFNHKWSINDFNAITEDQVNSQKLAKAQQATDGLSQELVSLLDPLLAQLSESFHYHAAFCFLYMFVCLCPHAKNIKFSLKSTLPIGAGLGSSASISVSLALAMAYLGGLIGSNDLEKLSENDKHIVNQWAFIGEKCIHGTPSGIDNAVATYGNALLFEKDSHNGTINTNNFKFLDDFPAIPMILTYTRIPRSTKDLVARVRVLVTEKFPEVMKPILDAMGECALQGLEIMTKLSKCKGTDDEAVETNNELYEQLLELIRINHGLLVSIGVSHPGLELIKNLSDDLRIGSTKLTGAGGGGCSLTLLRRDITQEQIDSFKKKLQDDFSYETFETDLGGTGCCLLSAKNLNKDLKIKSLVFQLFENKTTTKQQIDDLLLPGNTNLPWTS
modifications: His6-tag
For the molecule B1, the “Specific activity (% of wild-type)” value in series [1] is given as 100 % of wild-type. Further, the “Feedback resistance (%)” value in series [2] is listed as 0%.

B2: F59S: Saccharomyces cerevisiae mevalonate kinase mutant with substitution F59S (protein, listed as Saccharomyces cerevisiae)
chain: MSLPFLTSAPGKVIIFGEHSAVYNKPAVAASVSALRTYLLISESSAPDTIELDFPDISSNHKWSINDFNAITEDQVNSQKLAKAQQATDGLSQELVSLLDPLLAQLSESFHYHAAFCFLYMFVCLCPHAKNIKFSLKSTLPIGAGLGSSASISVSLALAMAYLGGLIGSNDLEKLSENDKHIVNQWAFIGEKCIHGTPSGIDNAVATYGNALLFEKDSHNGTINTNNFKFLDDFPAIPMILTYTRIPRSTKDLVARVRVLVTEKFPEVMKPILDAMGECALQGLEIMTKLSKCKGTDDEAVETNNELYEQLLELIRINHGLLVSIGVSHPGLELIKNLSDDLRIGSTKLTGAGGGGCSLTLLRRDITQEQIDSFKKKLQDDFSYETFETDLGGTGCCLLSAKNLNKDLKIKSLVFQLFENKTTTKQQIDDLLLPGNTNLPWTS
Regarding B2, the “Specific activity (% of wild-type)” value in series [1] was 31 % of wild-type. The “Feedback resistance (%)” value in series [2] came out at 56%.

B3: L106P, S218P: Saccharomyces cerevisiae mevalonate kinase mutant with substitutions L106P and S218P (protein, listed as Saccharomyces cerevisiae)
chain: MSLPFLTSAPGKVIIFGEHSAVYNKPAVAASVSALRTYLLISESSAPDTIELDFPDISFNHKWSINDFNAITEDQVNSQKLAKAQQATDGLSQELVSLLDPLLAQPSESFHYHAAFCFLYMFVCLCPHAKNIKFSLKSTLPIGAGLGSSASISVSLALAMAYLGGLIGSNDLEKLSENDKHIVNQWAFIGEKCIHGTPSGIDNAVATYGNALLFEKDPHNGTINTNNFKFLDDFPAIPMILTYTRIPRSTKDLVARVRVLVTEKFPEVMKPILDAMGECALQGLEIMTKLSKCKGTDDEAVETNNELYEQLLELIRINHGLLVSIGVSHPGLELIKNLSDDLRIGSTKLTGAGGGGCSLTLLRRDITQEQIDSFKKKLQDDFSYETFETDLGGTGCCLLSAKNLNKDLKIKSLVFQLFENKTTTKQQIDDLLLPGNTNLPWTS
As for B3, in series [1], the “Specific activity (% of wild-type)” value is reported as 42 % of wild-type. Moreover, in series [2], the “Feedback resistance (%)” value amounted to 24%.

B4: K83E, S249P: Saccharomyces cerevisiae mevalonate kinase mutant with substitutions K83E and S249P (protein, listed as Saccharomyces cerevisiae)
chain: MSLPFLTSAPGKVIIFGEHSAVYNKPAVAASVSALRTYLLISESSAPDTIELDFPDISFNHKWSINDFNAITEDQVNSQKLAEAQQATDGLSQELVSLLDPLLAQLSESFHYHAAFCFLYMFVCLCPHAKNIKFSLKSTLPIGAGLGSSASISVSLALAMAYLGGLIGSNDLEKLSENDKHIVNQWAFIGEKCIHGTPSGIDNAVATYGNALLFEKDSHNGTINTNNFKFLDDFPAIPMILTYTRIPRPTKDLVARVRVLVTEKFPEVMKPILDAMGECALQGLEIMTKLSKCKGTDDEAVETNNELYEQLLELIRINHGLLVSIGVSHPGLELIKNLSDDLRIGSTKLTGAGGGGCSLTLLRRDITQEQIDSFKKKLQDDFSYETFETDLGGTGCCLLSAKNLNKDLKIKSLVFQLFENKTTTKQQIDDLLLPGNTNLPWTS
Consider B4, for which the “Specific activity (% of wild-type)” value in series [1] was 78 % of wild-type. The “Feedback resistance (%)” value in series [2] is recorded as 37%.

B5: H111N, K375N: Saccharomyces cerevisiae mevalonate kinase mutant with substitutions H111N and K375N (protein, listed as Saccharomyces cerevisiae)
chain: MSLPFLTSAPGKVIIFGEHSAVYNKPAVAASVSALRTYLLISESSAPDTIELDFPDISFNHKWSINDFNAITEDQVNSQKLAKAQQATDGLSQELVSLLDPLLAQLSESFNYHAAFCFLYMFVCLCPHAKNIKFSLKSTLPIGAGLGSSASISVSLALAMAYLGGLIGSNDLEKLSENDKHIVNQWAFIGEKCIHGTPSGIDNAVATYGNALLFEKDSHNGTINTNNFKFLDDFPAIPMILTYTRIPRSTKDLVARVRVLVTEKFPEVMKPILDAMGECALQGLEIMTKLSKCKGTDDEAVETNNELYEQLLELIRINHGLLVSIGVSHPGLELIKNLSDDLRIGSTKLTGAGGGGCSLTLLRRDITQEQIDSFNKKLQDDFSYETFETDLGGTGCCLLSAKNLNKDLKIKSLVFQLFENKTTTKQQIDDLLLPGNTNLPWTS
For the molecule B5, the “Specific activity (% of wild-type)” value in series [1] is on record as 87 % of wild-type. Moreover, the “Feedback resistance (%)” value in series [2] is listed as 65%.

B6: P55L, C117S: Saccharomyces cerevisiae mevalonate kinase mutant with substitutions P55L and C117S (protein, listed as Saccharomyces cerevisiae)
chain: MSLPFLTSAPGKVIIFGEHSAVYNKPAVAASVSALRTYLLISESSAPDTIELDFLDISFNHKWSINDFNAITEDQVNSQKLAKAQQATDGLSQELVSLLDPLLAQLSESFHYHAAFSFLYMFVCLCPHAKNIKFSLKSTLPIGAGLGSSASISVSLALAMAYLGGLIGSNDLEKLSENDKHIVNQWAFIGEKCIHGTPSGIDNAVATYGNALLFEKDSHNGTINTNNFKFLDDFPAIPMILTYTRIPRSTKDLVARVRVLVTEKFPEVMKPILDAMGECALQGLEIMTKLSKCKGTDDEAVETNNELYEQLLELIRINHGLLVSIGVSHPGLELIKNLSDDLRIGSTKLTGAGGGGCSLTLLRRDITQEQIDSFKKKLQDDFSYETFETDLGGTGCCLLSAKNLNKDLKIKSLVFQLFENKTTTKQQIDDLLLPGNTNLPWTS
For B6, in series [1], the “Specific activity (% of wild-type)” value is listed as 60 % of wild-type. Moreover, the “Feedback resistance (%)” value in series [2] stood at 58%.

B7: I142N, L158S, L231I, T367S: Saccharomyces cerevisiae mevalonate kinase mutant with substitutions I142N, L158S, L231I and T367S (protein, listed as Saccharomyces cerevisiae)
chain: MSLPFLTSAPGKVIIFGEHSAVYNKPAVAASVSALRTYLLISESSAPDTIELDFPDISFNHKWSINDFNAITEDQVNSQKLAKAQQATDGLSQELVSLLDPLLAQLSESFHYHAAFCFLYMFVCLCPHAKNIKFSLKSTLPNGAGLGSSASISVSLASAMAYLGGLIGSNDLEKLSENDKHIVNQWAFIGEKCIHGTPSGIDNAVATYGNALLFEKDSHNGTINTNNFKFIDDFPAIPMILTYTRIPRSTKDLVARVRVLVTEKFPEVMKPILDAMGECALQGLEIMTKLSKCKGTDDEAVETNNELYEQLLELIRINHGLLVSIGVSHPGLELIKNLSDDLRIGSTKLTGAGGGGCSLTLLRRDISQEQIDSFKKKLQDDFSYETFETDLGGTGCCLLSAKNLNKDLKIKSLVFQLFENKTTTKQQIDDLLLPGNTNLPWTS
On to B7, for which, in series [1], the “Specific activity (% of wild-type)” value is on record as 61 % of wild-type. The “Feedback resistance (%)” value in series [2] came out at 58%.
